Patent publication US7553821B2, “Methods for selectively modulating survivin apoptosis pathways” (Yale University, priority 2000, dated 2009)

How the values were obtained:
[1] = molecular target: T1, p34^cdc2 (Homo sapiens, UniProt P06493); assay: Co-immunoprecipitation of survivin and p34cdc2 from HeLa cells; assay type: binding; conditions: asynchronously growing transfected HeLa cells
T1 construct: immunoprecipitated with an antibody to HA, and immunoblotted with antibodies to p34^cdc2 or HA; endogenous in cells; host or cells: HeLa
Method: The experimental procedures are the same as in A, except that asynchronously growing HeLa cells were transfected with HA-survivin or HA-survivin(T34A), immunoprecipitated with an antibody to HA, and immunoblotted with antibodies to p34^cdc2 or HA. W, whole HeLa cell extract.
(§1) Transfection experiments. For transient transfection, HeLa cells in C-6 tissue culture plates (Costar, Cambridge, Mass.) at ˜60-70% confluency, were incubated in 1 ml of serum-free OptiMEM medium (Life Technologies, Gaithersburg, Md.) for 20 min, and transfected with 2.5 μg of the various plasmid cDNAs plus 9 μl Lipofectamine (Life Technologies). After a 5 h incubation at 37° C., the mixture was aspirated and substituted with complete growth medium for 48-72 h. To generate stable YUSAC-2 transfectants, a survivin(T34A) cDNA was inserted into the HindIII-SpeI sites of the pTet-splice vector (Dr. D. Schatz, Yale University School of Medicine), downstream of the regulatory sequences of the Tet-resistance operon (TetO). YUSAC-2 cells were transfected with 0.8 μg pTet-T34A, 0.8 μg of the transactivation/selection plasmid ptTA-Neo and 5 μl Lipofectamine in 1 ml of OptiMem. […] Gated GFP-expressing cells were analyzed for DNA content by flow cytometry on a FACSort (Becton Dickinson, San Jose, Calif.) using a Cell Quest software. […]

[2] = molecular target: T2, caspase-8 (Homo sapiens, UniProt Q14790); assay: Co-immunoprecipitation of survivin and caspase-8 from HeLa cells; assay type: binding; conditions: transfected HeLa cells
T2 construct: endogenous in cells; host or cells: HeLa
Method: The experimental conditions are the same as in A, except that HA-survivin and HA-survivin(T34A) immunoprecipitates were separately immunoblotted with antibodies to caspase-8 or HA. S, supernatant of HA-survivin immunoprecipitate. Arrow, position of ˜55 kDa proform caspase-8.
as §1

T1 sequence (P06493 whole entry): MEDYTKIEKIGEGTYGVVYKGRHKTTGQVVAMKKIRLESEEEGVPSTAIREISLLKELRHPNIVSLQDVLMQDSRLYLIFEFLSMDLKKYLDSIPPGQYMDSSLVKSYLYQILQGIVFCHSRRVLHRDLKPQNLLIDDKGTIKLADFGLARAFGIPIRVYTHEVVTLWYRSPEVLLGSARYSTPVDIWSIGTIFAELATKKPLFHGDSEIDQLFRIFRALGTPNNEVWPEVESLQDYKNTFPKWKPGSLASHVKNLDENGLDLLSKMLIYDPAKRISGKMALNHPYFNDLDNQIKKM
T2 sequence (Q14790 whole entry): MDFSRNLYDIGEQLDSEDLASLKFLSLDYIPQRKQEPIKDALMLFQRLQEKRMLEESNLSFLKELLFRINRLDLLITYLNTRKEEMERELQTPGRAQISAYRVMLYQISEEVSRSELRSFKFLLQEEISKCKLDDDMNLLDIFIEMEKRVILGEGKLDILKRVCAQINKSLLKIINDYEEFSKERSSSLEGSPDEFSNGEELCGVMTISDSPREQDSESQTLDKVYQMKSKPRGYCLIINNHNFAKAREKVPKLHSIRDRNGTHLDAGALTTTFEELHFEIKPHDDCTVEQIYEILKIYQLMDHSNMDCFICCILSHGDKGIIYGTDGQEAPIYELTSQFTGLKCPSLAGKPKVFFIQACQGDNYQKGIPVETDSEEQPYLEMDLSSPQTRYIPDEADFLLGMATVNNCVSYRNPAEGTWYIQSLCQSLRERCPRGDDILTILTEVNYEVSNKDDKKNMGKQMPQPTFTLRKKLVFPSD

survivin(T34A): dominant-negative, non-phosphorylatable survivin mutant with Thr34→Ala substitution, expressed from transfected cDNA (also HA- or GFP-tagged)
p34^cdc2 in HA immunoprecipitates by Western blotting [1]: contained a prominent p34^cdc2 band
caspase-8 in immunoprecipitates by Western blotting [2]: did not contain another upstream initiator caspase, caspase-8
